The series deals with HphI restriction endonuclease (Haemophilus parahaemolyticus). Put plainly: cleavage_in_vitro. As to conditions: crude extract cleaves lambda DNA; pAGR3-Rg1 clones in ER2252 about 750 units/g.

lambda DNA gave an activity (units/g cells) of 5000.

For the origin of these results see patent US5731185.
